Measured values published in PMC6691507 (Biochemistry, 2019).

Molecular target: PAD2 D177A mutant, purified recombinant (human (from the printed UniProt entry …, UniProt Q9Y2J8 1-665, D177A))
Assay: co-IP

Chain of PAD2 D177A mutant, purified recombinant (human (Q9Y2J8 whole entry D177A): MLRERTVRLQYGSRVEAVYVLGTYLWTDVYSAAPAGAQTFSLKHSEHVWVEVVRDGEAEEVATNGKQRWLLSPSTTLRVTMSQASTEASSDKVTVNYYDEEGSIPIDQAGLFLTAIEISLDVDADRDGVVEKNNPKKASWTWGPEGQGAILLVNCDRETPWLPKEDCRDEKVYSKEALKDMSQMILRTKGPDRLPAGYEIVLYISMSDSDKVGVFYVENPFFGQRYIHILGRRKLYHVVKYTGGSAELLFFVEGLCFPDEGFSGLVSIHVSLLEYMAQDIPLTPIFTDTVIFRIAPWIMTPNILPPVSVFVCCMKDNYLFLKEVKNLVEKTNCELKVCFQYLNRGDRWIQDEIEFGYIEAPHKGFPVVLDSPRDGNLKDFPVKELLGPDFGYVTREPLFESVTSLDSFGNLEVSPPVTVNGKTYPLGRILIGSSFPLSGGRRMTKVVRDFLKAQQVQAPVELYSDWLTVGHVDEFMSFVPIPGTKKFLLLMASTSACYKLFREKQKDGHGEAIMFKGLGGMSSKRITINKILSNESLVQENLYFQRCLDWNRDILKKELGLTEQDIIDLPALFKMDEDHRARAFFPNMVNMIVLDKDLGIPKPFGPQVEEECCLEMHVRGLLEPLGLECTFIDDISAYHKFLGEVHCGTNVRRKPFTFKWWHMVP

B1: Annexin A5 (ANXA5), purified recombinant (natural protein, UniProt P08758 1-320, looked up)
chain: MAQVLRGTVTDFPGFDERADAETLRKAMKGLGTDEESILTLLTSRSNAQRQEISAAFKTLFGRDLLDDLKSELTGKFEKLIVALMKPSRLYDAYELKHALKGAGTNEKVLTEIIASRTPEELRAIKQVYEEEYGSSLEDDVVGDTSGYYQRMLVVLLQANRDPDAGIDEAQVEQDAQALFQAGELKWGTDEEKFITIFGTRSVSHLRKVFDKYMTISGFQIEETIDRETSGNLEQLLLAVVKSIRSIPAYLAETLYYAMKGAGTDDHTLIRVMVSRSEIDLFNIRKEFRKNFATSLYSMIKGDTSGDYKKALLLLCGEDD
B1: binds.
